Test results: publication PMC5831843, “Creating a more robust 5-hydroxymethylfurfural oxidase by combining computational predictions with a novel effective library design” (Biotechnology for Biofuels, 2018)

Key:
O=Cc1ccc(CO)o1 = system: T1, O=Cc1ccc(CO)o1; assay: purified protein; type: biochemical, Methylovorus sp. MP688; details: 50 mM phosphate pH 8.0, 25 °C, O2 as electron acceptor
T1 construct: full-length, N-terminal His6x-SUMO fusion kept, recombinant from E. coli (pET SUMO / pBAD SUMO), FAD-containing

purified protein = substrate: O=Cc1ccc(CO)o1; assay: purified protein; details: 50 mM phosphate pH 8.0, 25 °C, O2 as electron acceptor

Molecule	Km (O=Cc1ccc(CO)o1) [µM]	kcat (O=Cc1ccc(CO)o1) [s⁻¹]	kcat/Km (O=Cc1ccc(CO)o1) [M⁻¹ s⁻¹]	Km (purified protein) [µM]	kcat (purified protein) [s⁻¹]	kcat/Km (purified protein) [M⁻¹ s⁻¹]
HMFO (HMF oxidase) (Methylovorus sp. MP688; A419Y/A435E/G356H/H74Y/I73V/T414K/V367L)	630	11.8	18700	–	–	–
HMFO (HMF oxidase) (Methylovorus sp. MP688) (protein) MTDTIFDYVIVGGGTAGSVLANRLSARPENRVLLIEAGIDTPENNIPPEIHDGLRPWLPRLSGDKFFWPNLTIHRAAEHPGITREPQFYEQGRLLGGGSSVNMVVSNRGLPRDYDEWQALGADGWDWQGVLPYFIKTERDADYGDDPLHGNAGPIPIGRVDSRHWSDFTVAATQALEAAGLPNIHDQNARFDDGYFPPAFTLKGEERFSAARGYLDASVRVRPNLSLWTESRVLKLLTTGNAITGVSVLRGRETLQVQAREVILTAGALQSPAILLRTGIGPAADLHALGIPVLADRPGVGRNLWEHSSIGVVAPLTEQARADASTGKAGSRHQLGIRASSGVDPATPSDLFLHIGADPVSGLASAVFWVNKPSSTGWLKLKDADPFSYPDVDFNLLSDPRDLGRLKAGLRLITHYFAAPSLAKYGLALALSRFAAPQPGGPLLNDLLQDEAALERYLRTNVGGVWHASGTARIGRADDSQAVVDKAGRVYGVTGLRVADASIMPTVPTANTNLPTLMLAEKIADAILTQA	–	–	–	1520	13.7	9030
